# In patent publication US20200024330A1:
# Columns and labels:
# [1] = molecular target: WT JR-FL gp120 (HIV-1 (isolate JR-FL)); test: ELISA on coated gp120; EC50 by nonlinear regression
# [2] = molecular target: JR-FL gp120 ΔV1/ΔV2 (HIV-1 (isolate JR-FL)); test: as above
# [3] = molecular target: HIV-1 92BR020 envelope glycoprotein (Env) (HIV-1); test: cell-based or functional assay
# [4] = molecular target: HIV-1 JR-CSF Env I424A (HIV-1 (isolate JR-CSF)) (UniProt P20871); test: cell-based or functional assay
# [5] = molecular target: Env of all HIV-1 pseudoviruses of the cross-clade 162-pseudovirus panel (n = 162); test: cell-based or functional assay
# [6] = molecular target: HIV-1 JR-CSF Env I415A (HIV-1 (isolate JR-CSF)) (UniProt P20871); test: cell-based or functional assay
# [7] = molecular target: HIV-1 Env of isolate MGRM-A-012 (HIV-1); test: cell-based or functional assay
# [8] = molecular target: HIV-1 JR-CSF Env R419A (HIV-1 (isolate JR-CSF)) (UniProt P20871); test: cell-based or functional assay
# [9] = molecular target: HIV-1 Env of isolate MGRM-A-004 (HIV-1); test: cell-based or functional assay
# [10] = molecular target: HIV-1 Env of isolate 93UG077 (HIV-1); test: cell-based or functional assay
# [11] = molecular target: Env of the clade C HIV-1 pseudoviruses of the cross-clade 162-pseudovirus panel (n = 27); test: cell-based or functional assay
# [12] = molecular target: HIV-1 JR-CSF Env I420A (HIV-1 (isolate JR-CSF)) (UniProt P20871); test: cell-based or functional assay
# [13] = molecular target: HIV-1 JR-CSF Env P313A (HIV-1 JR-CSF) (UniProt P20871); test: cell-based or functional assay
# [14] = molecular target: HIV-1 JR-CSF Env H330A (HIV-1 isolate JR-CSF) (UniProt P20871); test: cell-based or functional assay
# [15] = molecular target: HIV-1 JR-CSF Env T297A (HIV-1 JR-CSF) (UniProt P20871); test: cell-based or functional assay
# [16] = molecular target: HIV-1 JR-CSF Env P299A (HIV-1 JR-CSF) (UniProt P20871); test: cell-based or functional assay
# [17] = molecular target: HIV-1 Env of isolate MGRM-AE-001 (HIV-1); test: cell-based or functional assay
# [18] = molecular target: HIV-1 Env of isolate MGRM-A-009 (HIV-1); test: cell-based or functional assay
# [19] = molecular target: HIV-1 JR-CSF Env S387A (HIV-1 (isolate JR-CSF)) (UniProt P20871); test: cell-based or functional assay
# [20] = molecular target: HIV-1 JR-CSF Env I323A (HIV-1 isolate JR-CSF) (UniProt P20871); test: cell-based or functional assay
# [21] = molecular target: HIV-1 JR-CSF Env L416A (HIV-1 (isolate JR-CSF)) (UniProt P20871); test: cell-based or functional assay
# [22] = molecular target: HIV-1 JR-CSF Env I423A (HIV-1 (isolate JR-CSF)) (UniProt P20871); test: cell-based or functional assay
# [23] = molecular target: HIV-1 Env of isolate MGRM-C-026 (HIV-1); test: cell-based or functional assay
# [24] = molecular target: HIV-1 JR-CSF Env I309A (HIV-1 JR-CSF) (UniProt P20871); test: cell-based or functional assay
# [25] = molecular target: HIV-1 JR-CSF Env F210A (HIV-1 JR-CSF) (UniProt P20871); test: cell-based or functional assay
# [26] = molecular target: HIV-1 MGRM-C-027 envelope glycoprotein (Env) (HIV-1); test: cell-based or functional assay
# [27] = molecular target: HIV-1 Env of isolate MGRM-A-008 (HIV-1); test: cell-based or functional assay
# [28] = molecular target: HIV-1 JR-CSF Env G324A (HIV-1 isolate JR-CSF) (UniProt P20871); test: cell-based or functional assay
# [29] = molecular target: Env of the clade B HIV-1 pseudoviruses of the cross-clade 162-pseudovirus panel (n = 31); test: cell-based or functional assay
# [30] = molecular target: HIV-1 JR-CSF Env R304A (HIV-1 JR-CSF) (UniProt P20871); test: cell-based or functional assay
# [31] = molecular target: HIV-1 NL43 envelope glycoprotein (Env) (HIV-1); test: cell-based or functional assay
# [32] = molecular target: Env of the clade F HIV-1 pseudoviruses of the cross-clade 162-pseudovirus panel (n = 15); test: cell-based or functional assay
# [33] = molecular target: HIV-1 JR-CSF Env S306A (HIV-1 JR-CSF) (UniProt P20871); test: cell-based or functional assay
# [34] = molecular target: HIV-1 JR-CSF Env T413A (HIV-1 (isolate JR-CSF)) (UniProt P20871); test: cell-based or functional assay
# [35] = molecular target: HIV-1 JR-CSF Env N302A (HIV-1 JR-CSF) (UniProt P20871); test: cell-based or functional assay
# [36] = molecular target: HIV-1 JR-CSF Env N392Q (HIV-1 (isolate JR-CSF)) (UniProt P20871); test: cell-based or functional assay
# [37] = molecular target: HIV-1 JR-CSF Env W395A (HIV-1 (isolate JR-CSF)) (UniProt P20871); test: cell-based or functional assay
# [38] = molecular target: HIV-1 JR-CSF Env R350A (HIV-1 isolate JR-CSF) (UniProt P20871); test: cell-based or functional assay
# [39] = molecular target: HIV-1 93IN905 envelope glycoprotein (Env) (HIV-1); test: cell-based or functional assay
# [40] = molecular target: HIV-1 JR-CSF Env N355A (HIV-1 isolate JR-CSF) (UniProt P20871); test: cell-based or functional assay
# [41] = molecular target: HIV-1 JR-CSF Env T341A (HIV-1 isolate JR-CSF) (UniProt P20871); test: cell-based or functional assay
# [42] = molecular target: HIV-1 JR-CSF Env S199A (HIV-1 JR-CSF) (UniProt P20871); test: cell-based or functional assay
binder,measurement,setting,value
"PGT-126 (antibody, V domains shown) VH: QPQLQESGPGLVEASETLSLTCTVSGDSTAACDYFWGWVRQPPGKGLEWIGGLSHCAGYYNTGWTYHNPSLKSRLTISLDTPKNQVFLKLNSVTAADTAIYYCARFDGEVLVYHDWPKPAWVDLWGRGTLVTVSS VL: QSALTQPPSASGSPGQSISISCTGTSNRFVSWYQQHPGKAPKLVIYGVNKRPSGVPDRFSGSKSGNTASLTVSGLQTDDEAVYYCSSLVGNWDVIFGGGTKLTVL",EC50,[1],0.1 mg/L
same,EC50,[2],0.3 mg/L
same,IC50 neutralization,[3],0.0163 mg/L
same,Fold IC50 increase relative to wild-type,[4],0.4 fold
same,Median IC50 against viruses neutralized with an IC50 <50 µg/ml,[5],0.04 mg/L
same,Fold IC50 increase relative to wild-type,[6],0.3 fold
same,"IC50 (µg/mL), pseudovirus neutralization",[7],0.097 µg/mL
same,Fold IC50 increase relative to wild-type,[8],1.2 fold
same,"IC50 (µg/mL), pseudovirus neutralization",[9],> 50 µg/mL
same,"IC50 (µg/mL), pseudovirus neutralization",[10],0.02 µg/mL
same,Median IC50 against viruses neutralized with an IC50 <50 µg/ml,[11],0.18 mg/L
same,Fold IC50 increase relative to wild-type,[12],0.6 fold
same,Fold IC50 increase relative to wild-type,[13],0.4 fold
same,Fold IC50 increase relative to wild-type,[14],0.5 fold
same,Fold IC50 increase relative to wild-type,[15],0.8 fold
same,Fold IC50 increase relative to wild-type,[16],0.2 fold
same,"IC50 (µg/mL), pseudovirus neutralization",[17],9.68 µg/mL
same,"IC50 (µg/mL), pseudovirus neutralization",[18],0.004 µg/mL
same,Fold IC50 increase relative to wild-type,[19],0.6 fold
same,Fold IC50 increase relative to wild-type,[20],0.9 fold
same,Fold IC50 increase relative to wild-type,[21],0.8 fold
same,Fold IC50 increase relative to wild-type,[22],1.1 fold
same,Polyclonal Transfectant Neutralization Index (well 5141 B17),[23],102
same,Primary Neutralization Index (B cell culture well 5141 B17),[23],654
same,Fold IC50 increase relative to wild-type,[24],1.2 fold
same,Fold IC50 increase relative to wild-type,[25],1.5 fold
same,IC50 neutralization,[26],1.14 mg/L
same,"IC50 (µg/mL), pseudovirus neutralization",[27],> 50 µg/mL
same,Fold IC50 increase relative to wild-type,[28],3.3 fold
same,Median IC50 against viruses neutralized with an IC50 <50 µg/ml,[29],0.02 mg/L
same,Fold IC50 increase relative to wild-type,[30],1.8 fold
same,IC50 neutralization,[31],> 10 mg/L
same,Median IC50 against viruses neutralized with an IC50 <50 µg/ml,[32],0.05 mg/L
same,Fold IC50 increase relative to wild-type,[33],0.7 fold
same,Fold IC50 increase relative to wild-type,[34],0.7 fold
same,Fold IC50 increase relative to wild-type,[35],0.9 fold
same,Fold IC50 increase relative to wild-type,[36],1.6 fold
same,Fold IC50 increase relative to wild-type,[37],0.6 fold
same,Fold IC50 increase relative to wild-type,[38],0.7 fold
same,IC50 neutralization,[39],0.0194 mg/L
same,Fold IC50 increase relative to wild-type,[40],0.2 fold
same,Fold IC50 increase relative to wild-type,[41],0.5 fold
same,Fold IC50 increase relative to wild-type,[42],0.8 fold
